According to patent US20250326797A1, “PROTEIN-PROTEIN INTERACTION MODULATORS AND METHODS FOR DESIGN THEREOF” (RAMOT AT TEL AVIV UNIVERSITY LTD., priority 2022, published 2025):

Assays:
[1] = target: T1, CaN PxIxIT binding site (CaNA, catalytic subunit of calcineurin) (Homo sapiens, UniProt Q08209, L343A/M347D/Y341S); assay: Fluorescence Polarization (FP) competition assay with FITC-labeled PVIVIT peptide; details: for ability to compete with PVIVIT for CaN binding: result in words; for IC50: competition with 100 nM FITC-labeled PVIVIT peptide, 4 uM CaNA, single site inhibition model, read-out: IC50: half maximal inhibitory concentration
T1 construct: GST; made in house; host or cells: E. coli BL21
Procedure: (§1) Fluorescence Polarization (FP) competition assay. Fluorescence measurements were performed on samples arrayed in a 96-well plate using Biotek HybridHI reader equipped with a polarized optic system. All measurements were done in triplicate. […] Experimental polarization data from simple and competitive binding experiments were fitted using GraphPad Prism7, with error bars representing standard deviation.
Selected peptides were synthesized and their ability to specifically bind the CaN PxIxIT binding site was evaluated by FP competition assay.
(§2) Polarization levels were read and normalized values were fitted to a single site model.
The above peptides are synthesized and their ability to specifically bind the CaN PxIxIT binding site is evaluated by FP competition assay. […] After fitting the polarization values to a single site inhibition model, the corresponding IC50 values are extracted.

[2] = target: T2, Catalytic subunit of calcineurin (CaNA), residues 2-347 with substitutions Y341S, L343A and M347D (UniProt Q08209 2-347); assay: FP competition assay against FITC-PVIVIT on CaNA
T2 construct: range 2-347; Expressed as a cleavable GST fusion and purified on a GST column and by size exclusion; The microarray used GST-tagged CaN; also called Cn
Procedure: as §1
(§3) Selected peptides were synthesized and their ability to specifically bind the CaN PxIxIT binding site was evaluated by FP competition assay. […] After fitting the polarization values to a single site inhibition model, the corresponding IC₅₀ values were extracted and reported in Table 2.

[3] = target: T2, Catalytic subunit of calcineurin …; assay: fluorescence polarization competition; unlabeled peptide titrated against 100 nM FITC-labeled PVIVIT bound to 4 uM CaNA
Procedure: as §1, §3, §2

[4] = target: T2, Catalytic subunit of calcineurin …; assay: FP competition assay against FITC-PVIVIT (100 nM) on CaNA (4 uM); single site inhibition fit
Procedure: as §1, §3

T1 sequence (Q08209 2-347 Y341S/L343A/M347D): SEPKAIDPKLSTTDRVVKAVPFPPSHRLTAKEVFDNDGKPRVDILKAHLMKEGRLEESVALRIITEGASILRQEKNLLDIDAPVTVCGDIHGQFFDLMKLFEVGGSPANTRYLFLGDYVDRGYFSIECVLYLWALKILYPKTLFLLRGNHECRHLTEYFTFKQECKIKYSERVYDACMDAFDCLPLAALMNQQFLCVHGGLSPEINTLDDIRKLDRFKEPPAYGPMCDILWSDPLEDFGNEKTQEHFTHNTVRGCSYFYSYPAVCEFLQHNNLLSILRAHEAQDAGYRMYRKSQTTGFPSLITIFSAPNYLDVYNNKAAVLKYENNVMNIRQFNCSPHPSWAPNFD
T2 sequence (Q08209 2-347 Y341S/L343A/M347D): as above

In the case of Ac-ADGAGVGIVITVTEAE-NH2 [rbmAKAP79_2], the “ability to compete with PVIVIT for CaN binding” value [1] is reported as “successfully competed with PVIVIT binding”.

In the case of Ac-ADEAIPEIVISKPEEP-NH2 [rbmTRESK], the IC50 [1] is reported as 14 µM and the “IC50 relative to closest natural counterpart (human TRESK fragment)” value ([1]; rbmTRESK vs natural TRESK fragment) is reported as “almost four times lower”.

In the case of “Ac-ADEAVPQIIISAEELP-NH2 [TRESK, reference compound]”, the IC50 [1] is reported as 54 µM.

With Ac-AAGAGVGIVITVTEAE-NH2 [rbmAKAP79] the “ability to compete with PVIVIT for CaN binding” value [1] was “successfully competed with PVIVIT binding”.

With Ac-ADEAIPEIVISKPEEP-NH2 (designed binder) [rbmTRESK] the “fold lower IC50 than the CaN-binding fragment of human TRESK protein (SEQ ID NO: 3)” value [2] was ~4 fold and the “IC50 (read off the curve)” value [3] was ~10 µM.

Ac-HVSSSPRITITPTQHR-NH2 (designed binder) [rbmRIPOR2_2] gave an IC50 [4] of 200 µM.

With Ac-ASVSNPEITVTSAETE-NH2 (designed binder) [rbmRIPOR2] the IC50 [4] was 79 µM.

Molecule Ac-ADEAIPEITITSAELP-NH2 (designed binder) [rbmTRESK_2] has an IC50 [4] of 60 µM.

Molecule Ac-AAGAGVGIVITVTEAE-NH2 (designed binder) [rbmAKAP79] has an IC50 [4] of 57 µM.

Work on Ac-ADGAGVGIVITVTEAE-NH2 (designed binder) [rbmAKAP79_2] yielded an IC50 [4] of 69 µM.
